Test results as given in PMC4003184 (The Journal of General Physiology, 2014).

Target: mouse TRPV4 fused to mCherry (mouse, UniProt Q9EPK8 1-871)
Experiment: cross-correlation raster image correlation spectroscopy

mouse TRPV4 fused to mCherry, sequence (Q9EPK8 whole entry, the tested form may be a part): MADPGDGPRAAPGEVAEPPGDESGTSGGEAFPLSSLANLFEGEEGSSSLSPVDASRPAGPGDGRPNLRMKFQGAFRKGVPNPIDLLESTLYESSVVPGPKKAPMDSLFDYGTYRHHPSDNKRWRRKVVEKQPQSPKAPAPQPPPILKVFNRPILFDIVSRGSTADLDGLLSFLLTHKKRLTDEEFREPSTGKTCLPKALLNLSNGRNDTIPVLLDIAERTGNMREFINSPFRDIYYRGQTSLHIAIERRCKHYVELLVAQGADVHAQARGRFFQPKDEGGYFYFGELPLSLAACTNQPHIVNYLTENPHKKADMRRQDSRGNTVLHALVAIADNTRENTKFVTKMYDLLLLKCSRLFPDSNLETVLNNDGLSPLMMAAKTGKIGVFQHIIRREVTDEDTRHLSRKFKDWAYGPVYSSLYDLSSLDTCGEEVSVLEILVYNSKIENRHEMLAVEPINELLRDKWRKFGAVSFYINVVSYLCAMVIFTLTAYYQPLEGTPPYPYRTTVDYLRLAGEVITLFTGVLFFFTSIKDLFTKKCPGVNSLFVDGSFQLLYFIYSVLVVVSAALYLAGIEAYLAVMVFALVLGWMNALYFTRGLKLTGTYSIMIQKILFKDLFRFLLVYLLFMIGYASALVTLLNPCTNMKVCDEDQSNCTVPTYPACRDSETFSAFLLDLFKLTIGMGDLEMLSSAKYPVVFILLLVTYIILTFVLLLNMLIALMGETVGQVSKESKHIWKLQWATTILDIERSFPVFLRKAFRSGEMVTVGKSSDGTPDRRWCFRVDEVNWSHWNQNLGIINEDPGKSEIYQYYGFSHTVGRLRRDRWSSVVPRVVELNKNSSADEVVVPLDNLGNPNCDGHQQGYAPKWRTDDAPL

- cross-correlation ratio (Gcc/[mean of G_(TRPV4) and G_(AKAP)]): 0.4
B1: AKAP150 fused to EGFP (natural protein, UniProt P24587 1-714, looked up)
chain: METSVSEIQIETKDEKRPEAASPQKERQERKTATLCFKRRKKVNKKKAKAGSKTAEETEKHAPEAGGSGQRQPAGAWASIKRLVTHRKPSESAEKQKPSEAEMQPEDGALPKKKTKSKLKIPCIRFSRGAKRSRPSKLTEDSGYVRVQGEADDLEIKAQIQPDEQATQAKSTQGLQEDVIVRDGKEIQESHISNNVISGEHVIGIELELEKESSALRMRTPGSEKEAKVILVKQGVQVQEASVLENSAADSPQPVTSTAPLSPATTHQLGLEEPSDSIRESAPSGKDDGRRKTAAEEKKSGETALGQAEEASSVSQADKSVLSQAEEATVGHTEEATVIQAQSQAKEGKLSQAEEATVAQAKETVLSQAEEVKLSQIEEPAISQAKKATVGQAKEAYVSQAEEAIVGHTEKATMGQAEEATVGHIEKTTVGQAEEATVGQAEEATVGQAEEATVGQAEEATVGQAEEATVGQAGEATVSHIEKTTVGQAEEAIVGQAEEATVGQAEEATVGQAEEATVGQAEEATVDQAEEATVGQAEEATVGQAGEAAVGQAEEAIVAQAEEATVGQAGEATVGQAEKATVGQAEEPIVGQAEETVLRHASDLKVNGVDAEKPRSEESKRMEPIAIIITDTEISEFDVKKSKNVPKQFLISMENEQVGVFANDSDFEGRTSEQYETLLIETASSLVKNAIELSVEQLVNEMVSEDNQINTLFQ
